Consider one molecule from patent US20110271408A1 (University of California, published 2011).

In this test the target is T1, HAB1-GAL4 AD (Gal4 activation domain (AD)-PP2C fusion protein encoded by pAD-HAB1) (UniProt Q9CAJ0 1-511, limits assumed).
T1 construct: Prey of the yeast two-hybrid assays; also called HAB1-AD
T1 sequence (looked up): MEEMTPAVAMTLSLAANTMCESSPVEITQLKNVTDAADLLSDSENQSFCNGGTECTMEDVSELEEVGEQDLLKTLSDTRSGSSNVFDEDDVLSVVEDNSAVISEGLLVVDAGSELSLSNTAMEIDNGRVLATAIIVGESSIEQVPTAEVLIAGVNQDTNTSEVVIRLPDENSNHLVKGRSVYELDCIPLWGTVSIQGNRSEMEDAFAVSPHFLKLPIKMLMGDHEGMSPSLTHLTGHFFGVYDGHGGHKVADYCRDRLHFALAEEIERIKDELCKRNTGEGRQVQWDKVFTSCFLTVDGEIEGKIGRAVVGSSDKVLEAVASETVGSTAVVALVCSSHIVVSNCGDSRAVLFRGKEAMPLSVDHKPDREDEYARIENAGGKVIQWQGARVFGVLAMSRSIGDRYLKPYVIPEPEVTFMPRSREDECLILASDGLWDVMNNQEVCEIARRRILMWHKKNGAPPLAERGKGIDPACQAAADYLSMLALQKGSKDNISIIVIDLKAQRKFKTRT
The test can be described thus: yeast two-hybrid X-gal staining on increasing concentrations of fenhexamid (Y190 pAD-HAB1).

B1: PYL2 K64R, Y124H, M164I mutant, GAL4 BD fusion (pBD-PYL2) (receptor)
chain: MSSSPAVKGLTDEEQKTLEPVIKTYHQFEPDPTTCTSLITQRIHAPASVVWPLIRRFDNPERYRHFVKRCRLISGDGDVGSVREVTVISGLPASTSTERLEFVDDDHRVLSFRVVGGEHRLKNHKSVTSVNEFLNQDSGKVYTVVLESYTVDIPEGNTEEDTKIFVDTVVKLNLQKLGVAATSAPMHDDE
B1: the binding result is “no binding”.
